Assay results published in US20200331991A1 (Teva, published 2020).
Where no end group is shown, it is not given here.

B1: human α-CGRP 1-13-COOH (peptide)
peptide: ACDTATCVTHRLA-OH
modifications: ends and bridges not checked
B2: Human amylin (1-37) (peptide)
peptide: KCNTATCATQRLANFLVHSSNNFGAILSSTNVGSNTY-NH2
modifications: ends and bridges not checked
B3: antibody G1 Fab fragment (Fab, V domains shown)
VH: EVQLVESGGGLVQPGGSLRLSCAASGFTFSNYWISWVRQAPGKGLEWVAEIRSESDASATHYAEAVKGRFTISRDNAKNSLYLQMNSLRAEDTAVYYCLAYFDYGLAIQNYWGQGTLVTVSS
VL: EIVLTQSPATLSLSPGERATLSCKASKRVTTYVSWYQQKPGQAPRLLIYGASNRYLGIPARFSGSGSGTDFTLTISSLEPEDFAVYYCSQSYNYPYTFGQGTKLEIK
B4: Human adrenomedullin (1-52) (peptide)
peptide: YRQSMNNFQGLRSFGCRFGTCTVQKLAHQIYQFTDKDKDNVAPRSKISPQGY-NH2
modifications: ends and bridges not checked
B5: human α-CGRP 1-19-COOH (peptide)
peptide: ACDTATCVTHRLAGLLSRS-OH
modifications: ends and bridges not checked
B6: Human calcitonin (1-32) (peptide)
peptide: CGNLSTCMLGTYTQDFNKFHTFPQTAIGVGAP-NH2
modifications: ends and bridges not checked

Legend:
antibody G1 Fab fragment = target: B3; assay: Biacore competition: G1 Fab 50 nM pre-incubated 1 h with 10 uM peptide, then over biotinylated human α-CGRP on SA chip
Source text: (§1) Y axis represents percentage of binding blocked by the presence of the competing peptide compared with the binding in the absence of the competing peptide.
(§2) All these peptides are amidated at the C-terminus.

human α-CGRP 8-37 = target: T1, human α-CGRP 8-37 (human, C-terminal amide); assay: Biacore: 50 nM G1 Fab with 10 uM competing peptide in solution, over human α-CGRP on chip
T1 peptide: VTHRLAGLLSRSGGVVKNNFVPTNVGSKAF
Source text: as §1, §2

rat α-CGRP (1-37) = target: T2, rat α-CGRP (1-37) (rat, C-terminal amide; N-terminal biotin when captured on the SA chip); assay: as above
T2 construct: also called rat α (1-37); α-rat
T2 peptide: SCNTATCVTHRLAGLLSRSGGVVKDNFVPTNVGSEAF
Source text: as §1, §2

[1] = target: T3, human α-CGRP P29A (19-37) (human); assay: as above
T3 peptide: SGGVVKNNFVATNVGSKAF-NH2
Source text: as §1, §2

human α-CGRP 26-37 = target: T4, human α-CGRP 26-37 (human); assay: as above
T4 peptide: NFVPTNVGSKAF-NH2
Source text: as §1, §2

rat β-CGRP (1-37) = target: T5, rat β-CGRP (1-37) (rat, C-terminal amide; N-terminal biotin when captured on the SA chip); assay: as above
T5 construct: also called rat β (1-37)
T5 peptide: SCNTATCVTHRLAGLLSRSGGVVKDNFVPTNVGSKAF
Source text: as §1, §2

[2] = target: T6, human α-CGRP K35E (19-37) (human, not fully specified); assay: as above
T6 peptide: SGGVVKNNFVPTNVGSEAF-NH2
Source text: as §1, §2

[3] = target: T7, human α-CGRP K35M (19-37) (human, not fully specified); assay: as above
T7 peptide: SGGVVKNNFVPTNVGSMAF-NH2
Source text: as §1, §2

human β-CGRP (1-37) = target: T8, human β-CGRP (1-37) (human, not fully specified; C-terminal amide; N-terminal biotin when captured on the SA chip); assay: as above
T8 construct: also called human β (1-37)
T8 peptide: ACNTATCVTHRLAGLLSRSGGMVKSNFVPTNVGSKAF
Source text: as §1, §2

[4] = target: T9, human α-CGRP K35A (19-37) (human, not fully specified); assay: as above
T9 peptide: SGGVVKNNFVPTNVGSAAF-NH2
Source text: as §1, §2

human α-CGRP 1-36-COOH = target: T10, human α-CGRP 1-36-COOH (human, free C-terminus (not amidated)); assay: as above
T10 construct: also called 1-36 (not amidated at the C-terminus)
T10 peptide: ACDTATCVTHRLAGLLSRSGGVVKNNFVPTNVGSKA

human α-CGRP 1-19-COOH = target: B5; assay: Biacore peptide competition (FIG. 6)
Source text: as §1, §2

Human calcitonin (1-32) = target: B6; assay: Biacore peptide competition (FIG. 6)
Source text: as §1, §2

Human amylin (1-37) = target: B2; assay: Biacore peptide competition (FIG. 6)
Source text: as §1, §2

[5] = target: B4; assay: Biacore peptide competition (FIG. 6)
Source text: as §1, §2

human α-CGRP 19-36-COOH = human α-CGRP 19-36-COOH (human, Table 4: free C-terminus (COOH); paragraph 375 calls it amidated at the C-terminus); assay: Biacore peptide competition (FIG. 6)
Source text: as §1, §2

human α-CGRP 1-13-COOH = target: B1; assay: Biacore peptide competition (FIG. 6)
Source text: as §1, §2

B1: no binding (tested: 10 uM) (antibody G1 Fab fragment).

B2: no binding (tested: 10 uM) (antibody G1 Fab fragment).

B3 was tested, and the “% of binding blocked by competing peptide” value (shortened to “% of binding blocked”) (human α-CGRP 8-37) was 100%, the “% of binding blocked” value (rat α-CGRP (1-37)) was 100% and the “% of binding blocked” value [1] was 100%. The “% of binding blocked” value (human α-CGRP 26-37) was 100%, the “% of binding blocked” value (rat β-CGRP (1-37)) was 100% and the “% of binding blocked” value [2] was 100%. The “% of binding blocked” value [3] was 100%, the “% of binding blocked” value (human β-CGRP (1-37)) was 100% and the “% of binding blocked” value [4] was 100%. For the same binder, the “% of binding blocked” value (human α-CGRP 1-36-COOH) was ~40%, the binding result (human α-CGRP 1-19-COOH) was “no binding (tested: 10 uM peptide in 50 nM G1 Fab)” and the binding result (Human calcitonin (1-32)) was “no binding (tested: 10 uM peptide in 50 nM G1 Fab)”. B3: no binding (tested: 10 uM peptide in 50 nM G1 Fab) (Human amylin (1-37)); no binding (tested: 10 uM peptide in 50 nM G1 Fab) [5]; no binding (tested: 10 uM peptide in 50 nM G1 Fab) (human α-CGRP 19-36-COOH). B3: no binding (tested: 10 uM peptide in 50 nM G1 Fab) (human α-CGRP 1-13-COOH).

B4: no binding (tested: 10 uM) (antibody G1 Fab fragment).

B5: no binding (tested: 10 uM) (antibody G1 Fab fragment).

B6: no binding (tested: 10 uM) (antibody G1 Fab fragment).

B7: 19-36 CONH2 (peptide)
peptide: SGGVVKNNFVPTNVGSKA-NH2
notes: also called human α-CGRP 19-36, amidated at the C-terminus
B7 was tested, and the “% Binding blocked” value (antibody G1 Fab fragment) was 0.6% and the binding result (antibody G1 Fab fragment) was “no binding (tested: 10 uM)”.
